The text below walks through data of paper PMC9135631 (2022).

As usually defined, the Kd is the concentration at which binding is half-saturated.

Where a chain is given by its changes, count along the chain named. In names and notes the source's numbering stands.

B1: soluble FLRT3 extracellular domain fused to the constant fraction of human IgG (FLRT3^ECD-Fc) (Fc fusion)
chain: KSCPSVCRCDAGFIYCNDRFLTSIPTGIPEDATTLYLQNNQINNAGIPSDLKNLLKVERIYLYHNSLDEFPTNLPKYVKELHLQENNIRTITYDSLSKIPYLEELHLDDNSVSAVSIEEGAFRDSNYLRLLFLSRNHLSTIPWGLPRTIEELRLDDNRISTISSPSLQGLTSLKRLVLDGNLLNNHGLGDKVFFNLVNLTELSLVRNSLTAAPVNLPGTNLRKLYLQDNHINRVPPNAFSYLRQLYRLDMSNNNLSNLPQGIFDDLDNITQLILRNNPWYCGCKMKWVRDWLQSLPVKVNVRGLMCQAPEKVRGMAIKDLNAELFDCKDSGIVSTIQITTAIPNTVYPAQGQWPAPVTKQPDIKNPKLTKDHQTTGSPSRKTITITVKSVTSDTIHISWKLALPMTALRLSWLKLGHSPAFGSITETIVTGERSEYLVTALEPDSPYKVCMVPMETSNLYLFDETPVCIETETAPLRMYNPTTTLNREQEKEPYKNPNLP
modifications: N-terminal HA/Flag epitopes left out; isoform not printed (Q9HAR2-2 chosen over Q9HAR2-4, both fit the variant numbering); signal peptide removed and autoproteolysis at the GPS expected in the cell
B2: Latrophilin-3 ADHD-related variant R465S (Lphn3^R465S) (receptor)
chain: MWPSQLLIFMMLLAPIIHAFSRAPIPMAVVRRELSCESYPIELRCPGTDVIMIESANYGRTDDKICDSDPAQMENIRCYLPDAYKIMSQRCNNRTQCAVVAGPDVFPDPCPGTYKYLEVQYECVPYKVEQKVFLCPGLLKGVYQSEHLFESDHQSGAWCKDPLQASDKIYYMPWTPYRTDTLTEYSSKDDFIAGRPTTTYKLPHRVDGTGFVVYDGALFFNKERTRNIVKFDLRTRIKSGEAIIANANYHDTSPYRWGGKSDIDLAVDENGLWVIYATEQNNGKIVISQLNPYTLRIEGTWDTAYDKRSASNAFMICGILYVVKSVYEDDDNEATGNKIDYIYNTDQSKDSLVDVPFPNSYQYIAAVDYNPRDNLLYVWNNYHVVKYSLDFGPLDSRSGQAHHGQVSYISPPIHLDSELERPSVKDISTTGPLGMGSTTTSTTLRTTTLSPGRSTTPSVSGRRNSSTSTPSPAVEVLDDMTTHLPSASSQIPALEESCEAVEAREIMWFKTRQGQIAKQPCPAGTIGVSTYLCLAPDGIWDPQGPDLSNCSSPWVNHITQKLKSGETAANIARELAEQTRNHLNAGDITYSVRAMDQLVGLLDVQLRNLTPGGKDSAARSLNKLQKRERSCRAYVQAMVETVNNLLQPQALNAWRDLTTSDQLRAATMLLHTVEESAFVLADNLLKTDIVRENTDNIKLEVARLSTEGNLEDLKFPENMGHGSTIQLSANTLKQNGRNGEIRVAFVLYNNLGPYLSTENASMKLGTEALSTNHSVIVNSPVITAAINKEFSNKVYLADPVVFTVKHIKQSEENFNPNCSFWSYSKRTMTGYWSTQGCRLLTTNKTHTTCSCNHLTNFAVLMAHVEVKHSDAVHDLLLDVITWVGILLSLVCLLICIFTFCFFRGLQSDRNTIHKNLCISLFVAELLFLIGINRTDQPIACAVFAALLHFFFLAAFTWMFLEGVQLYIMLVEVFESEHSRRKYFYLVGYGMPALIVAVSAAVDYRSYGTDKVCWLRLDTYFIWSFIGPATLIIMLNVIFLGIALYKMFHHTAILKPESGCLDNINYEDNRPFIKSWVIGAIALLCLLGLTWAFGLMYINESTVIMAYLFTIFNSLQGMFIFIFHCVLQKKVRKEYGKCLRTHCCSGKSTESSIGSGKTSGSRTPGRYSTGSQSRIRRMWNDTVRKQSESSFITGDINSSASLNREPYRETSMGVKLNIAYQIGASEQCQGYKCHGYSTTEW
B3: Latrophilin-3 wild type (Lphn3^HA,Flag) (receptor)
chain: B2 chain with S465R
B4: Latrophilin-3 ADHD-related variant A247S (Lphn3^A247S) (receptor)
chain: B2 chain with A247S, S465R
B5: Latrophilin-3 ADHD-related variant T783M (Lphn3^T783M) (receptor)
chain: B2 chain with S465R, T783M
B6: Latrophilin-3 ADHD-related variant D615N (Lphn3^D615N) (receptor)
chain: B2 chain with S465R, D615N

In test [1] the target is B3.
Test [2] deals with 8xHis-tagged Teneurin-2 extracellular domain (Ten2^ECD-His) (UniProt Q9NT68 401-2774, HA/Flag epitopes left out; isoform assumed; signal peptide removed and GPS autoproteolysis expected).
Test [3] has as its target 8xHis-tagged Teneurin-2 extracellular domain (Ten2^ECD-His) (UniProt Q9NT68 401-2774, N-terminal HA/Flag epitopes left out; isoform not printed (Q9HAR2-2 chosen over Q9HAR2-4, both fit the variant numbering); signal peptide removed and autoproteolysis at the GPS expected in the cell).

For the molecule B1, the Kd in test [1] worked out at 0.988 nM.

In turn, B2 gave a Kd in test [2] of 1.06 nM. In other words, the single-digit nanomolar range.

The molecule B3 came in with a Kd in test [3] of 0.69 nM.

Consider B4, for which the affinity in test [2], expressed as Kd, was 1.15 nM.

With B5, the Kd in test [2] is 0.756 nM.

On to B6, for which binding in test [2] was characterised by a dissociation constant (Kd) of 0.896 nM.
